Biological target: T1, GST-IRF4 (human, UniProt Q15306 1-451)
T1 sequence (looked up): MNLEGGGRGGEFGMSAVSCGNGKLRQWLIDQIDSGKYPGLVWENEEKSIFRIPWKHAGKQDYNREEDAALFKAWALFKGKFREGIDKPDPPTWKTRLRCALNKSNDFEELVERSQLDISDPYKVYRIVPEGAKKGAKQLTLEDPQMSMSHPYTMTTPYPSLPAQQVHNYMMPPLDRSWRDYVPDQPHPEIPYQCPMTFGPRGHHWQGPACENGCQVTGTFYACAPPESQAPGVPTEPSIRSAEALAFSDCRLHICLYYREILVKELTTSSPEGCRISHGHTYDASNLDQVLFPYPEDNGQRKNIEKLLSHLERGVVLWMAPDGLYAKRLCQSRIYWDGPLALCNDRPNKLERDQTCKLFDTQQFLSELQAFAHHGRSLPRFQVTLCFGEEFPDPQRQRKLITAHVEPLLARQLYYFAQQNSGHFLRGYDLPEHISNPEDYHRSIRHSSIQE
Experiment: pull-down

binding result: binds
B1: purified His-Peli1 (enzyme, human, UniProt Q96FA3 1-418, looked up)
chain: MFSPDQENHPSKAPVKYGELIVLGYNGSLPNGDRGRRKSRFALFKRPKANGVKPSTVHIACTPQAAKAISNKDQHSISYTLSRAQTVVVEYTHDSNTDMFQIGRSTESPIDFVVTDTVPGSQSNSDTQSVQSTISRFACRIICERNPPFTARIYAAGFDSSKNIFLGEKAAKWKTSDGQMDGLTTNGVLVMHPRNGFTEDSKPGIWREISVCGNVFSLRETRSAQQRGKMVEIETNQLQDGSLIDLCGATLLWRTAEGLSHTPTVKHLEALRQEINAARPQCPVGFNTLAFPSMKRKDVVDEKQPWVYLNCGHVHGYHNWGNKEERDGKDRECPMCRSVGPYVPLWLGCEAGFYVDAGPPTHAFSPCGHVCSEKTTAYWSQIPLPHGTHTFHAACPFCAHQLAGEQGYIRLIFQGPLD

Reference: article doi:10.1101/334433 (bioRxiv, 2018)
